Reference: patent publication US5942663A, “Biocidal proteins” (Zeneca Limited, priority 1991, dated 1999)
No end group written: not given here.

Legend:
[1] = test system: Nectria haematococca; format: cell-based; conditions: N haematococca, 48 hours of incubation
[2] = test system: Venturia inaequalis; format: cell-based; conditions: V inaequalis, 10 days of incubation
[3] = test system: Pyricularia oryzae; format: cell-based
[4] = test system: Fusarium oxysporum f.sp. lycopersici; format: cell-based; conditions: 48 hours of incubation
[5] = test system: Colletotrichum lindemuthianum; format: cell-based; conditions: C lindemuthianum, 48 hours of incubation
[6] = test system: Verticillium dahliae; format: cell-based; conditions: V dahliae, 48 hours of incubation
[7] = test system: Erwinia carotovora; assay: Antibacterial activity in vitro test; format: cell-based; conditions: E carotovora, 48 hours
Description: (§1) The antibacterial activity of the Mj-AMPs was tested against a range of gram-positive and gram-negative bacteria: Bacillus megaterium, Sarcina lutea, Escherichia coli and Erwinia carotovora. β-purothionin and UDA were also tested for comparison (see Example 7). Tests were performed in soft agarose medium containing 1% tryptone and, with or without 1 mM CaCl2 and 50 mM KCl. Absorbance, 595 nm, of the culture was measured after 48 hours.

[8] = test system: Sarcina lutea; assay: Antibacterial activity in vitro test; format: cell-based; conditions: S lutea, 48 hours
Description: as §1

[9] = test system: Bacillus megaterium; assay: Antibacterial activity in vitro test; format: cell-based; conditions: B megaterium, 48 hours
Description: as §1

[10] = test system: Escherichia coli; assay: Antibacterial activity in vitro test; format: cell-based; conditions: E coli, 48 hours
Description: as §1

[11] = test system: Botrytis cinerea; format: cell-based; conditions: B cinerea, 48 hours of incubation
[12] = test system: Fusarium culmorum; format: cell-based; conditions: F culmorum, 48 hours of incubation
[13] = test system: Phoma betae; format: cell-based; conditions: P betae, 48 hours of incubation
[14] = test system: Fusarium culmorum; assay: Stability of the antifungal activity of the Mj-AMPs; format: cell-based
Description: Antifungal activity was measured by microspectrophotometry as previously described (Broekaert, WF et al; 1990; FEMS Microbiol Lett, 69, 55-60). Routinely, tests were performed with 20 μl of a (filter-sterilized) test solution and 80 μl of a fungal spore suspension (2×10^4 spores/ml) in half strength Potato Dextrose Broth (Difco). Control microcultures contained 20 μl of (sterile) distilled water and 80 μl of the fungal spore suspension. Unless otherwise stated the test organism was Fusarium culmorum and incubation was done at 25° C. for 48 hours. Percent growth inhibition is defined as 100 times the ratio of the corrected absorbance of the control microculture minus the corrected absorbance of the test microculture over the corrected absorbance at 595 nm of the control microculture. The corrected absorbance values equal the absorbance at 595 nm of the culture measured after 48 hours minus the absorbance at 595 nm measured after 30 min. Values of growth inhibition lower than 10% are not indicated on the chromatograms.
Table 1 summarises the results of further testing of the stability of the antifungal activity of the Mj-AMPs. Tests for antifungal activity were performed with 20 μl samples diluted five-fold with growth medium containing Fusarium culmorum spores (2×10^4 spores/ml), according to the assay method given in Example 2. Control samples contained either Mj-AMP1 at 500 μg/ml or Mj-AMP2 at 100 μg/ml in 10 mM sodium phosphate buffer (pH 7). Reduction was done by addition of DTT at 2.5 mM followed by incubation at 37° C. for 2 hours. pH stability was tested in the following buffers: 20 mM glycine-HCl (pH 2 and 3); 20 mM diethanolamine-HCl (pH 10); and 20 mM glycine-NaOH (pH 11). After 1 hour of incubation in the appropriate buffers the samples were dialyzed for 16 hours against 10 mm sodium phosphate buffer (pH 7). For digestions, proteases were added at 100 μg/ml and incubated at 37° C. for 16 hours.

[15] = test system: Alternaria brassicola; format: cell-based; conditions: A brassicola, 48 hours of incubation
[16] = test system: Saccharomyces cerevisiae; assay: Inhibitory activity against yeast; format: cell-based; set-up: key: +++:complete inhibition; +:some inhibition; -:no inhibition
Description: The inhibitory activity of Mj-AMPs against yeast, Saccharomyces cerevisiae was tested. The results shown in Table 5 indicate that Mj-AMPs do inhibit the growth of yeast at concentrations of 500 μg/ml or above.

[17] = test system: Pyrenophora tritici-repentis; format: cell-based; conditions: P tritici-repentis, 48 hours of incubation
[18] = test system: Fusarium oxysporum f.sp. pisi; format: cell-based; conditions: 48 hours of incubation
[19] = Isoelectric focusing; format: physicochemical; conditions: isoelectric focusing on Immobiline Dry Strips
Description: PAS staining for glycoproteins was done by the method of Zacharius, RM et al (1969; Anal Biochem, 30, 148-152) using ovalbumin (3.2% carbohydrate) as a positive control sample. The pI values of Mj-AMP1 and Mj-AMP2 were determined by isoelectric focusing and found to be about 10.5 for both proteins. Isoelectric focussing was done on precast Immobiline Dry Strips (Pharmacia) using marker proteins in the pI range from 4.7 to 10.6 (Pharmacia).

[20] = test system: Ascochyta pisi; format: cell-based; conditions: A pisi, 48 hours of incubation
[21] = MEDIUM +Ca/K (1 mM CaCl2 and 50 mM KCl)

Work on “Mj-AMP2: antimicrobial protein from Mirabilis jalapa seeds, dimer of two 3.5 kDa subunits, 36 residues, SEQ ID NO:2 (CIGNGGRCNENVGPPYCCSGFCLRQPNQGYGVCRNR; cysteine pairing not given here; also: homodimer)” yielded an IC50 [1] of 0.5 mg/L, an IC50 [2] of 1 µg/mL and an IC50 [3] of 0.5 mg/L. The IC50 [4] was 10 mg/L, the IC50 [5] was 1 mg/L and the IC50 [6] was 0.5 mg/L. The IC50 [7, 21] was > 500 mg/L, the IC50 ([7]; MEDIUM -Ca/K) was > 500 mg/L and the IC50 [8, 21] was > 500 mg/L. It also gave an IC50 ([8]; MEDIUM -Ca/K) of 50 mg/L, an IC50 [9, 21] of 10 mg/L and an IC50 ([9]; MEDIUM -Ca/K) of 2 mg/L. The IC50 [10, 21] was > 500 mg/L, the IC50 ([10]; MEDIUM -Ca/K) was > 500 mg/L and the IC50 [11] was 2 µg/mL. The IC50 [12] was 3 µg/mL, the IC50 [13] was 6 mg/L and the “Relative antifungal activity (shown as % of control activity)” value ([14]; 80° C., 10 min) was 100 % of control activity. For the same molecule, the “Relative antifungal activity (shown as % of control activity)” value ([14]; 90° C., 10 min) was 100 % of control activity, the “Relative antifungal activity (shown as % of control activity)” value ([14]; 100° C., 10 min) was 100 % of control activity and the “Relative antifungal activity (shown as % of control activity)” value ([14]; Chymotrypsin digestion, 100 μg/ml, 37° C., 16 hours) was 50 % of control activity. The “Relative antifungal activity (shown as % of control activity)” value ([14]; Control: Mj-AMP1 500 μg/ml or Mj-AMP2 100 μg/ml in 10 mM sodium phosphate buffer pH 7) was 100 % of control activity, the “Relative antifungal activity (shown as % of control activity)” value ([14]; Pronase E digestion, 100 μg/ml, 37° C., 16 hours) was 25 % of control activity and the “Relative antifungal activity (shown as % of control activity)” value ([14]; Proteinase K digestion, 100 μg/ml, 37° C., 16 hours) was 100 % of control activity. For the same molecule, the “Relative antifungal activity (shown as % of control activity)” value ([14]; Reduction: DTT 2.5 mM, 37° C., 2 hours) was < 3 % of control activity, the “Relative antifungal activity (shown as % of control activity)” value ([14]; Trypsin digestion, 100 μg/ml, 37° C., 16 hours) was 100 % of control activity and the “Relative antifungal activity (shown as % of control activity)” value ([14]; pH 2, 60 min) was 100 % of control activity. For the same molecule, the “Relative antifungal activity (shown as % of control activity)” value ([14]; pH 3, 60 min) was 100 % of control activity, the “Relative antifungal activity (shown as % of control activity)” value ([14]; pH 10, 60 min) was 100 % of control activity and the “Relative antifungal activity (shown as % of control activity)” value ([14]; pH 11, 60 min) was 100 % of control activity. The “Sensitivity to protease (in words)” value ([14]; pronase E) was “most sensitive”, the IC50 [15] was 6 mg/L and the “Inhibitory activity against yeast” value ([16]; with Ca/K, 5 μg/ml) was “-”. The “Inhibitory activity against yeast” value ([16]; with Ca/K, 50 μg/ml) was “+++”, the “Inhibitory activity against yeast” value ([16]; with Ca/K, 500 μg/ml) was “+++” and the “Inhibitory activity against yeast” value ([16]; without Ca/K, 5 μg/ml) was “+++”. For the same molecule, the “Inhibitory activity against yeast” value ([16]; without Ca/K, 50 μg/ml) was “+++”, the “Inhibitory activity against yeast” value ([16]; without Ca/K, 500 μg/ml) was “+++” and the IC50 [17] was 20 mg/L. For the same molecule, the IC50 [18] was 5 µg/mL, the pI [19] was “about 10.5” and the IC50 [20] was 6 µg/mL.

B1: UDA: known antifungal protein isolated from stinging nettle (Urtica dioica) rhizomes (protein, UniProt P11218 24-372, looked up)
Lectin/endochitinase 1: QRCGSQGGGGTCPALWCCSIWGWCGDSEPYCGRTCENKCWSGERSDHRCGAAVGNPPCGQDRCCSVHGWCGGGNDYCSGSKCQYRCSSSVRGPRVALSGNSTANSIGNVVVTEPLFDQMFSHRKDCPSQGFYSYHSFLVAAESFPAFGTIGDVATRKREVAAFLAHISQATSGERSDVENPHAWGLCHINTTTVTENDFCTSSDWPCAAGKKYSPRGPIQLTHNFNYGLAGQAIGEDLIQNPDLVEKDPIISFKTALWFWMSQHDNKPSCHDIVLNANSAANRIPNKGVIGNIISRAFGHDDFAVRSSSIGFYKRYCDMLGVSYGHDLKYWFDNTPSSEFQRIQMRVAA
With B1 the IC50 [1] was 200 mg/L, the IC50 [2] was 1,000 μg/ml and the IC50 [5] was 20 mg/L. The IC50 [6] was 80 mg/L, the IC50 [7, 21] was > 500 mg/L and the IC50 ([7]; MEDIUM -Ca/K) was > 500 mg/L. The IC50 [8, 21] was > 500 mg/L, the IC50 ([8]; MEDIUM -Ca/K) was > 500 mg/L and the IC50 [9, 21] was > 500 mg/L. For the same molecule, the IC50 ([9]; MEDIUM -Ca/K) was 250 mg/L, the IC50 [10, 21] was > 500 mg/L and the IC50 ([10]; MEDIUM -Ca/K) was > 500 mg/L. For the same molecule, the IC50 [11] was > 1,000 μg/ml, the IC50 [12] was > 1,000 μg/ml and the IC50 [13] was 50 mg/L. For the same molecule, the IC50 [15] was 200 mg/L, the IC50 [17] was 200 mg/L and the IC50 [18] was > 1,000 μg/ml. For the same molecule, the IC50 [20] was 1,000 μg/ml.
